According to US20250145711A1 (Janssen / Centocor, published 2025):
Residue numbers refer to the chain shown, from its start. In names and notes the source's numbering stands.

B1: CD3B2085 (scFv)
scFv: QVQLVQSGAEVKKPGSSVKVSCKASGYTFTRSTMHWVRQAPGQGLEWMGYINPSSAYTNYAQKFQGRVTLTADKSTSTAYMELSSLRSEDTAVYYCASPQVHYDYNGFPYWGQGTLVTVSSGGSEGKSSGSGSESKSTGGSEIVLTQSPATLSASPGERVTLSCSASSSVSYMNWYQQKPGTAPRRWIYDSSKLASGVPARFSGSGSGRDYTLTISSLEPEDFAVYYCQQWSRNPPTFGGGTKVEIK
B2: CD3B2078 (scFv)
scFv: B1 scFv with M48I, A183S, W187L
B3: CD3B2088 (scFv)
scFv: B1 scFv with T182Q, A183S
B4: CD3B2087 (scFv)
scFv: B1 scFv with W187L
B5: CD3B2086 (scFv)
scFv: B1 scFv with A183S, W187L
B6: CD3B2073 (scFv)
scFv: B1 scFv with A61N, T182Q
B7: CD3B2082 (scFv)
scFv: B1 scFv with A183S
B8: CD3B2071 (scFv)
scFv: B1 scFv with A61N, W187L
B9: CD3B2077 (scFv)
scFv: B1 scFv with M48I
B10: CD3B2079 (scFv)
scFv: B1 scFv with M48I, W187L
B11: CD3B2072 (scFv)
scFv: B1 scFv with A61N, T182Q, A183S
B12: CD3B2080 (scFv)
scFv: B1 scFv with M48I, T182Q, A183S
B13: CD3B2081 (scFv)
scFv: B1 scFv with M48I, T182Q
B14: CD3B2030 N106A (scFv)
scFv: B1 scFv with R38K, M48I, A61N, N106A, T182Q
B15: CD3B2030 N106F (scFv)
scFv: B1 scFv with R38K, M48I, A61N, N106F, T182Q
B16: CD3B2089 N106P (scFv)
scFv: B1 scFv with N106P, T182Q
B17: CD3B2030 N106P (scFv)
scFv: B1 scFv with R38K, M48I, A61N, N106P, T182Q
B18: CD3B2030 N106I (scFv)
scFv: B1 scFv with R38K, M48I, A61N, N106I, T182Q
B19: CD3B2089 N106L (scFv)
scFv: B1 scFv with N106L, T182Q
B20: CD3B2089 G107Y (scFv)
scFv: B1 scFv with G107Y, T182Q
B21: CD3B2089 G107V (scFv)
scFv: B1 scFv with G107V, T182Q
B22: CD3B2089 G107F (scFv)
scFv: B1 scFv with G107F, T182Q
B23: CD3B2089 N106G (scFv)
scFv: B1 scFv with N106G, T182Q

Target: T1, CD3 on primary human pan T cells (human, UniProt P07766 23-207)
T1 construct: on cells it stands in the TCR/CD3 complex; also called Pan T-cells (CD3-positive); endogenous CD3
T1 sequence (P07766 23-207 limits assumed): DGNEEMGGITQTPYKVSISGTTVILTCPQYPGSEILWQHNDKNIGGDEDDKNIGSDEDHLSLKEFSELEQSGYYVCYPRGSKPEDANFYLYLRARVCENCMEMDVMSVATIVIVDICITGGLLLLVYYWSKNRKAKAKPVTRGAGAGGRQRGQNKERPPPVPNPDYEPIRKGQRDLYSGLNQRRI
Experiment: flow cytometry, pan T-cells
Method: ELISA assays for binding to recombinant CD3 (TRCW5, SEQ ID NO: 39) were performed as above. Cell binding was performed using primary human T cell and Jurkat cells by flow cytometry. Briefly, E. coli expressed anti CD3 ScFv supernatants, either at room temperature, or 55° C., 60° C. or 65° C. heat treated samples.
Pan T-cells (CD3-positive) and Jurkat-CD3-negative cells were prepared by staining Jurkat-CD3-negative cells with CFSE while keeping pan T-cells unstained. Jurkat-CD3-negative cell suspensions were resuspended at 20 million cells per each 50 mL conical tube. Cells were harvested by centrifugation at 400×g for 5 minutes and resuspended in DPBS followed by washing 2× in DPBS. Cells were stained with 1:25,000 dilution for a final dye concentration of 0.02 uM CFSE (2 uL of staining solution to 50 mL of cell suspension). Cells were incubated for 10 minutes at room temperature and centrifuged for 5 minutes at 400×g. After removal of supernatant, 3 mL of HI-FBS were added to the cell pellet, mixed and centrifuged for 5 min at 400×g. Supernatant was removed and cells were resuspended in BD stain buffer at 2×10\hat{ }6 cells/mL and incubated on ice or 4 C protected from light. Human pan T cells were thawed at 37 C and transferred gently into a conical tube containing 15 mL of warm or RT culture media (RPMI+10% FBS). […] Cells were harvested by centrifugation at 400×g for 5 min and resuspended in culture media (RPMI+10% HI-FBS). Pan T-cells (without staining) were prepared at 2×10\hat{ }6 cells/mL in flow staining buffer. Equal volumes of CFSE stained Jurkat-CD3-negative cells and unstained T-cells (CD3-positive) cells were mixed and plated 50 uL/well into assay plates. 50 uL/well neat bacterial supernatant samples and control sample (CD3W36 ScFv) were added to each well and plates were incubated 1 hr at 4 C or. Cells were harvested by centrifugation at 400×g for 4 min and 150 uL staining buffer were added to all wells, followed by centrifugation at 400×g for 4 min to pellet cells. To each well, 150 uL staining buffer were added followed by centrifugation at 400×g for 4 minutes to pellet cells.

Row | Binder | % Binding retained on T-cells, 55° C. | % Binding retained on T-cells, 60° C. | % Binding retained on T-cells, 65° C. | % Binding retained on T-cells, RT
1 | B1 | 1.01 fraction | 0.411 fraction | 0.385 fraction | 1 fraction
2 | B2 | 1.01 fraction | 0.762 fraction | 0.0574 fraction | 1 fraction
3 | B3 | 1.01 fraction | 0.461 fraction | 0.258 fraction | 1 fraction
4 | B4 | 1.02 fraction | 0.964 fraction | 0.105 fraction | 1 fraction
5 | B5 | 1.01 fraction | 1.12 fraction | 0.0404 fraction | 1 fraction
6 | B6 | 0.993 fraction | 1.1 fraction | 0.348 fraction | 1 fraction
7 | B7 | 1.11 fraction | 0.682 fraction | 0.276 fraction | 1 fraction
8 | B8 | 1.01 fraction | 0.899 fraction | 0.12 fraction | 1 fraction
9 | B9 | 1.03 fraction | 1.1 fraction | 0.307 fraction | 1 fraction
10 | B10 | 1.06 fraction | 0.979 fraction | 0.116 fraction | 1 fraction
11 | B11 | 0.872 fraction | 1.27 fraction | 0.0933 fraction | 1 fraction
12 | B12 | 1.07 fraction | 1.13 fraction | 0.0573 fraction | 1 fraction
13 | B13 | 1.04 fraction | 1.2 fraction | 0.102 fraction | 1 fraction

Target: T2, TRCW5 antigen (CD3δε-Fc-Avi) (biotinylated (site not stated))
T2 construct: also called recombinant CD3
T2 sequence (chain, as listed by the source mutant limits assumed): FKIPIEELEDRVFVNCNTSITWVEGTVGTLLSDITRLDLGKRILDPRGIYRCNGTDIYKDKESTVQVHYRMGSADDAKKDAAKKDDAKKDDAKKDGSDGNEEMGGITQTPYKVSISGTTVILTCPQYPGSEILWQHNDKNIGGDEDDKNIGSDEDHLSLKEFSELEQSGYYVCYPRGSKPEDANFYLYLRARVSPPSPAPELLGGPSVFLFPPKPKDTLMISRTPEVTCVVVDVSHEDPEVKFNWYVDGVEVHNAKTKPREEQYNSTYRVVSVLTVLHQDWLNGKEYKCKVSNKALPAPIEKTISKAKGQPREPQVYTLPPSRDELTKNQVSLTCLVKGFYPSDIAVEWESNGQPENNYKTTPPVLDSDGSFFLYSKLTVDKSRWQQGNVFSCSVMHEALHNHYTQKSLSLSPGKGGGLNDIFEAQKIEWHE
Experiment: binding after heat

Row | Binder | % Retained 55° C. | % Retained 60° C. | % Retained 65° C.
14 | B14 | 111% | 103% | 55.6%
15 | B15 | 106% | 83.3% | 21.8%

Target: T2, TRCW5 antigen (CD3δε-Fc-Avi)
Experiment: ELISA after heat

Row | Binder | % Retained 55° C. | % Retained 60° C. | % Retained 65° C.
16 | B1 | 112% | 117% | 18%
17 | B2 | 107% | 88% | 2%
18 | B3 | 116% | 114% | 26%
19 | B4 | 104% | 94% | 5%
20 | B5 | 104% | 96% | 5%
21 | B6 | 113% | 110% | 27%
22 | B7 | 114% | 116% | 9%
23 | B8 | 103% | 88% | 4%
24 | B9 | 106% | 107% | 22%
25 | B10 | 111% | 92% | 2%
26 | B11 | 117% | 111% | 17%
27 | B12 | 109% | 108% | 17%
28 | B13 | 112% | 114% | 38%

Target: T2, TRCW5 antigen (CD3δε-Fc-Avi)
Experiment: ELISA

Row | Binder | EC50
29 | B14 | 12.8 nM
30 | B15 | 9.7 nM
31 | B16 | ~27.4 nM
32 | B17 | ~24 nM
33 | B18 | ~13.3 nM
34 | B19 | 30.8 nM
35 | B20 | 21.4 nM
36 | B21 | 17.4 nM
37 | B22 | 14.4 nM
38 | B23 | ~429 nM
